B1: variant 6-10 (Fc fusion)
VHH: EVQLVESGGGLVQPGGSLRLSCAASGSIASIHAMGWFRQAPGKEREFVAAISRSGGFGSYADSVKGRFTISADNSKNTAYLQMNSLKPEDTAVYYCARDDKYYDSSGYPAYFQHWGQGTLVTVSS
B2: variant 6-13 (Fc fusion)
VHH: EVQLVESGGGLVQPGGSLRLSCAASGLTFNDYAMGWFRQAPGKEREFVAHIPRSTYSPYYADSVKGRFTISADNSKNTAYLQMNSLKPEDTAVYYCAFLVGPQGVDHGAFDVWGQGTLVTVSS
B3: variant 6-17 (Fc fusion)
VHH: EVQLVESGGGLVQPGGSLRLSCAASGNTGSTGYMGWFRQAPGKEREMVAGVINDGSTVYADSVKGRFTISADNSKNTAYLQMNSLKPEDTAVYYCARLATSHQDGTGYLFDYWGQGTLVTVSS
B4: variant 6-18 (Fc fusion)
VHH: EVQLVESGGGLVQPGGSLRLSCAASGLTFRNYAMGWFRQAPGKEREFIAGMMWSGGTTTYADSVKGRFTISADNSKNTAYLQMNSLKPEDTAVYYCAREGYYYDSSGYLNYFDYWGQGTLVTVSS
B5: variant 6-14 (Fc fusion)
VHH: EVQLVESGGGLVQPGGSLRLSCAASGITFRFKAMGWFRQAPGKEREFVAAVSWDGRNTYYADSVKGRFTISADNSKNTAYLQMNSLKPEDTAVYYCASDYYYMDVWGQGTLVTVSS
B6: variant 6-12 (Fc fusion)
VHH: EVQLVESGGGLVQPGGSLRLSCAASGSTYTTYSMGWFRQAPGKEREFVAAISGSENVTSYADSVKGRFTISADNSKNTAYLQMNSLKPEDTAVYYCARVDDYMDVWGQGTLVTVSS
B7: variant 6-16 (Fc fusion)
VHH: EVQLVESGGGLVQPGGSLRLSCAASGFTFDDAAMGWFRQAPGKEREFVAHISWSGGSTYYADSVKGRFTISADNSKNTAYLQMNSLKPEDTAVYYCATFGATVTATNDAFDIWGQGTLVTVSS
B8: variant 6-23 (Fc fusion)
VHH: EVQLVESGGGLVQPGGSLRLSCAASGSIFSMNTMGWFRQAPGKEREFVALINRSGGGINYADSVKGRFTISADNSKNTAYLQMNSLKPEDTAVYYCVRLSSGYYDFDYWGQGTLVTVSS
B9: variant 6-22 (Fc fusion)
VHH: EVQLVESGGGLVQPGGSLRLSCAASGRTFSEVVMGWFRQAPGKEREFVATIHSSGSTSYADSVKGRFTISADNSKNTAYLQMNSLKPEDTAVYYCVRVTSDYSMDSWGQGTLVTVSS
B10: variant 6-20 (Fc fusion)
VHH: EVQLVESGGGLVQPGGSLRLSCAASGSTLPYHAMGWFRQAPGKEREFVAAITWNGASTSYADSVKGRFTISADNSKNTAYLQMNSLKPEDTAVYYCARDRYYDTSASYFESETWGQGTLVTVSS
notes: VHH-Fc
B11: variant 6-15 (Fc fusion)
VHH: EVQLVESGGGLVQPGGSLRLSCAASGSTVLINAMGWFRQAPGKEREFVAAVRWSDDYTYYADSVKGRFTISADNSKNTAYLQMNSLKPEDTAVYYCAKEGRAGSLDYWGQGTLVTVSS
B12: variant 6-5 (Fc fusion)
VHH: EVQLVESGGGLVQPGGSLRLSCAASGRTFTMGWFRQAPGKEREFVASTNSAGSTNYADSVNGRFTISADNSKNTAYLQMNSLKPEDTAVYYCTTVDQYFDYWGQGTLVTVSS
B13: variant 6-6 (Fc fusion)
VHH: EVQLVESGGGLVQPGGSLRLSCAASGTTLDYYAMGWFRQAPGKERELVAAISWSGGSTAYADSVKGRFTISADNSKNTAYLQMNSLKPEDTAVYYCAREDYYDSSGYSWGQGTLVTVSS
B14: variant 6-19 (Fc fusion)
VHH: EVQLVESGGGLVQPGGSLRLSCAASGSILSIAVMGWFRQAPGKEREFVAAISPSAVTTYYADSVKGRFTISADNSKNTAYLQMNSLKPEDTAVYYCAIGYYDSSGYFDYWGQGTLVTVSS

biological target: CV S-protein construct 6 trimer TP31001F (SARS-CoV-2, UniProt P0DTC2 14-1208); assay: SPR

Point of comparison: B7, Kd 2.2 nM. Against it:
- B1 — 3.7-fold lower, 0.6 nM
- B2 — 3.7-fold lower, 0.6 nM
- B3 — 3.7-fold lower, 0.6 nM
- B4 — 2.4-fold higher, 5.3 nM
- B5 — 210-fold higher, 466 nM
- B6 — 1.6-fold lower, 1.4 nM
- B8 — 7.3-fold lower, 0.3 nM
- B9 — within 1.5-fold, 1.8 nM
- B10 — 7.3-fold lower, 0.3 nM
- B11 — 4100-fold higher, 9050 nM
- B12 — 2.8-fold lower, 0.8 nM
- B13 — 31-fold higher, 67.7 nM
- B14 — 2.2-fold lower, 1 nM

Reference: patent publication US20210355194A1 (TWIST BIOSCIENCE, published 2021)
